Test results as given in patent publication US8283180B2, “Periodic acid-schiff staining with detection in the infrared range” (Amicus Therapeutics, Inc., priority 2007, dated 2012).

Tested on: PM-12 cells
Experiment: PAS staining of Pompe fibroblasts with IR fluorescence detection after diastase digestion
Type: cell-based, human
Conditions: 20,000 cells/well; 0.1% diastase, 5 to 60 minutes; detection at 800 nm; FIG. 2
Method: PM-11 Pompe fibroblasts were obtained from Dr. W. J. Kleijer, Department of Cell Biology & Genetics, Erasmus University, The Netherlands. PM-12 Pompe fibroblasts were purchased from Coriell (catalog #GM03329). CRL-2076 fibroblasts (negative control) were purchased from American Type Culture Collection (Manassas, Va.). All fibroblast lines were routinely cultured at 37° C., 5% CO2, in growth medium consisting of Dulbecco's Modified […] Medium containing 15% fetal bovine serum (Hyclone, Logan, Utah), 100 U/mL penicillin; 100 μg/mL streptomycin, and 2 mM L-glutamine.
Prior to the assay, borosilicate coverslip glass bottom 96-well black plates (Nunc; catalog #164588) are coated with superfibronectin (Sigma). […] Briefly, 100 μL of 5 μg/mL superfibronectin (Sigma) is pipetted into each well and the plate is incubated at 37° C. for 2 hours. […]
Following the overnight incubation, the plate is read on a laser-based Odyssey IR scanner (Li-Cor, Inc.) at emission wavelengths of 700 nm (near-IR) or 800 nm (IR). The detector counts IR and near-IR fluorescence emissions independently or simultaneously from the samples, and reports these counts as arbitrary units. The detector scans across an entire microtiter plate, thus can read two fluorophores from any microtiter formatted sample array (96-well, 384-well, or other) within a few minutes. […]

B1: diastase: α-amylase type VI-B from porcine pancreas; breaks down glycogen, used as negative control for PAS staining (protein, UniProt P00690 16-511, looked up)
Pancreatic alpha-amylase: QYAPQTQSGRTSIVHLFEWRWVDIALECERYLGPKGFGGVQVSPPNENIVVTNPSRPWWERYQPVSYKLCTRSGNENEFRDMVTRCNNVGVRIYVDAVINHMCGSGAAAGTGTTCGSYCNPGNREFPAVPYSAWDFNDGKCKTASGGIESYNDPYQVRDCQLVGLLDLALEKDYVRSMIADYLNKLIDIGVAGFRIDASKHMWPGDIKAVLDKLHNLNTNWFPAGSRPFIFQEVIDLGGEAIQSSEYFGNGRVTEFKYGAKLGTVVRKWSGEKMSYLKNWGEGWGFMPSDRALVFVDNHDNQRGHGAGGASILTFWDARLYKVAVGFMLAHPYGFTRVMSSYRWARNFVNGQDVNDWIGPPNNNGVIKEVTINADTTCGNDWVCEHRWRQIRNMVWFRNVVDGQPFANWWANGSNQVAFGRGNRGFIVFNNDDWQLSSTLQTGLPGGTYCDVISGDKVGNSCTGIKVYVSSDGTAQFSISNSAEDPFIAIHAESKL
With B1 as the molecule, how does the “time-dependent decrease in PAS stain IR fluorescence signal” value read?
The value was “about 2 fold”.
